From paper PMC9714796, “Macrophage TGF-β signaling is critical for wound healing with heterotopic ossification after trauma” (JCI Insight, 2022) come the findings set out here.

Usually Kd stands for the concentration at which binding is half-saturated. Higher therefore signals weaker binding.

First the molecules themselves.
B1: TGF-βRII-Fc (muTGFbRII-mFc) (Fc fusion, UniProt Q62312 24-166, looked up)
chain: IPPHVPKSVNSDVMASDNGGAVKLPQLCKFCDVRLSTCDNQKSCMSNCSITAICEKPHEVCVAVWRKNDKNITLETVCHDPKLTYHGFTLEDAASPKCVMKEKKRAGETFFMCACNMEECNDYIIFSEEYTTSSPDLLLVIIQ
B2: Transforming growth factor-β3 (TGF-β3) (ligand, UniProt P10600 301-412, looked up)
chain: ALDTNYCFRNLEENCCVRPLYIDFRQDLGWKWVHEPKGYYANFCSGPCPYLRSADTTHSTVLGLYNTLNPEASASPCCVPQDLEPLTILYYVGRTPKVEQLSNMVVKSCKCS
notes: TGF-β3 ligand used as SPR analyte

For assay [1], the target named is B2. In words: cell-based or functional assay.
Assay [2] concerns the target Transforming growth factor-β1 (TGF-β1) (UniProt P01137 279-390). In words: cell-based or functional assay.
The target in assay [3] is B1. Kind of assay: SPR; Biacore T100; TGF-βRII-Fc captured (~50 RU) by an anti-mouse Fc antibody amine-coupled to a CM5 chip; ligand injected at 0.013-10 nM (0.013-1.1 nM used for the fit); HBS-EP with 350 mM NaCl and 0.5 mg/mL BSA; 1:1 model with mass transport, KD = kd/ka. As to conditions: both partners purified. (Surface plasmon resonance follows binding to a sensor surface in real time, without labels.)

Transforming growth factor-β1 (TGF-β1), sequence (P01137 279-390): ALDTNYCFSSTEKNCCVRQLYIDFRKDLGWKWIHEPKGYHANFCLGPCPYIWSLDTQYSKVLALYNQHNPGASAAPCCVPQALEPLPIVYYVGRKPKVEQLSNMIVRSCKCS

As for B1, in assay [1], the “IC50 of TGF-βRII-Fc against TGF-β3 (270 pg/mL) signalling in A549 cells with the (CAGA)12 luciferase reporter” value was found to be 4.46 pM. Further, the “IC50 of TGF-βRII-Fc against TGF-β1 (640 pg/mL) signalling in A549 cells with the (CAGA)12 luciferase reporter” value in assay [2] worked out at 22.9 pM. In the case of B2, the Kd in assay [3] came to 11.2 pM. In other words, the picomolar range.
